Data taken from publication doi:10.1101/2023.02.16.528799.

Target: TAX peptide, Human T-cell leukemia virus type I peptide on HLA-A2 (human)
Assay: data from Cole et al., 2013

**Q.** How did the fold enhancement of binding over A6-TCR turn out when “A6-TCR after mutation of the CDR3 beta loop (PDBID 4FTV)” was run?
**A.** The fold enhancement of binding over A6-TCR was 1000 fold.
